Kd data for 6 molecules are collected here from publication PMC3858276 (2013).

The labels stand for the following.
B1: Rasa1b (Rasa1 sequence 174-447) without biotin (for MST) (domain or fragment)
chain: TAPPTNQWYHGKLDRTIAEERLRQAGKSGSYLIRESDRRPGSFVLSFLSQMNVVNHFRIIAMCGDYYIGGRRFSSLSDLIGYYSHVSCLLKGEKLLYPVAPPEPVEDRRRVRAILPYTKVPDTDEISFLKGDMFIVHNELEDGWMWVTNLRTDEQGLIVEDLVEEVGREEDPHEGKIWFHGKISKQEAYNLLMTVGQVCSFLVRPSDNTPGDYSLYFRTNENIQRFKICPTPNNQFMMGGRYYNSIGDIIDHYRKEQIVEGYYLKEPVPMQDQE
B3: Lck SH2 domain without biotin (for MST) (domain or fragment)
chain: WFFKNLSRKDAERQLLAPGNTHGSFLIRESESTAGSFSLSVRDFDQNQGEVVKHYKIRNLDNGGFYISPRITFPGLHELVRHYTNASDGLCTRLSRPC
B4: SH2D1A without biotin (for MST) (natural protein)
chain: MDAVAVYHGKISRETGEKLLLATGLDGSYLLRDSESVPGVYCLCVLYHGYIYTYRVSQTETGSWSAETAPGVHKRYFRKIKNLISAFQKPDQGIVIPLQYPVEKKSSARSTQGTTGIREDPDVCLKAP
B5: RasaN (N-terminal SH2 domain of Rasa1) without biotin (for MST) (domain or fragment)
chain: WYHGKLDRTIAEERLRQAGKSGSYLIRESDRRPGSFVLSFLSQMNVVNHFRIIAMCGDYYIGGRRFSSLSDLIGYYSHVSCLLKGEKLLYPV

Where no end group is shown, it is not given here.

What all share (assay): MST
Assay [1] addresses T1, phosphorylated SNAP-ADAP fusion protein (ADAP amino acids 570-690) (human, UniProt O15117 570-690, phosphotyrosine (in vitro phosphorylation by Fyn kinase, approx. 90% of each phosphorylation site; sites in Table S1); BG-647 dye on the SNAP-tag).
T1 chain: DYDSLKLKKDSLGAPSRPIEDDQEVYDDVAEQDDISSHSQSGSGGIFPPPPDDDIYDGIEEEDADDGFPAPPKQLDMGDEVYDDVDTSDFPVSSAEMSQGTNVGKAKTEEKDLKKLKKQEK

Assay [2] addresses B5.
The target in assay [3] is B1.
For assay [4], the target named is B3.
In assay [5] the target is B4.
The target in assay [6] is T2, Fyn SH2 domain without biotin (for MST) (UniProt P06241 149-246).
T2 chain: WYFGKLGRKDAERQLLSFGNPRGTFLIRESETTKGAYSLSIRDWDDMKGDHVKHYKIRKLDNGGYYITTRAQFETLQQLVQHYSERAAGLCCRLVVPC

The molecule B1 returned a Kd in assay [1] of 152 nM.

B2: SLP-76 SH2 domain without biotin (for MST) (domain or fragment)
chain: WYVSYITRPEAEAALRKINQDGTFLVRDSSKKTTTNPYVLMVLYKDKVYNIQIRYQKESQVYLLGTGLRGKEDFLSVSDIIDYFRKMPLLLIDGKNRGSRYQCTLTHAA
B2: the Kd in assay [1] was found to be 457 nM. Molecule B3 came in with a dissociation constant Kd in assay [1] of 1300 nM. The same measure, in the same setting: next, B4: 5730 nM; B5: 142 nM.

B6: phosphorylated SNAP-YEEI fusion (middle T antigen aa 315-331) (peptide)
chain: THQEEEEPQYEEIPIYL
modifications: not fully specified; also: tyrosine phosphorylation in vitro by Fyn, degree not placed
With B6, the equilibrium dissociation constant (Kd) in assay [2] came to 128 nM; in assay [3] it was 189 nM; in assay [4] it was 595 nM; in assay [5], 2340 nM; in assay [6] it was 430 nM.
